From the NTF2 design screens of Basanta et al. (2020)

Test: protease stability score; higher = more stable; yeast display proteolysis, trypsin and chymotrypsin;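 also: relative to predicted unfolded state with 0 unfolded-like and 1 meaning tenfold more protease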

Row | Sequence | protease stability score
1 | SEEHEVAKDAFDVTSHSWKTGDEELFRKLLDPNARFEIDGRDLHGRELVIKFIIEIRWEHTHVEEINVQGDKIIIKSRMEIHYNGVHINITVIVHVRKVNGRWITTHYIFI | 1.67
2 | SEEHHDAERAMEEFLKVMNTGNEKLLRDLIDPNVRTEINGQEIIGWKSMHRIMREWGVDNIRVHLRRLEVQGEKLHLEEELNVNGRTSKMEIVALKINGRWVVSEIRFH | 2.03
3 | SEEHHHYSELMHQLTEWMLTGNFEEWARYADPNTRARIDIDGRRLEVHGREEMMRVLKEHRKLMGVDHIEVRDRHVFNGRNELIFILHQGDKERHSHITIVVINGQIKEVDIILR | 1.61
4 | SEEHHIIHKFLEDFLRSWITGDEKSMKELLDPHAKVDIRVNGRDVHPHGWEFLEWYKRFFKNAQFRVHDIDVQGNKVHLITEVVVNGQKEEMHIHLQVVDGRAERVETRIH | 1.9
5 | SEEHHSEKLAIHLSKEISHTGDETWIKKMLDPNVKIVIGDKEFHGMENFVTHWHRLVKELGVDRVRHRVEDSDVQGDKLTMHVEIEVNGRKVESHIIAHKFNGRWLVKEIIFH | 1.23
6 | SEEHKEAREFLEEWITFIHTGDEDMIHKMLDPDTRSNINGRDLHGRELAVKIIIEEVRRYRGVQIRMEREHVVDGRMESTIRVHQGEKEFEVIVHFVKINGRWRLKWIEIR | 1.3
7 | SEEHKELRELIRITFEDLFTGDEDAFMRLFDPHTILHIGEKRYIGREIIIHALRWLGVDHMEIKHIDIQGEKVDMHMHLKVGDKSWTMHLHIEKFNGQWHSKHIEIR | 1.95
8 | SEEHKEMKRSLDESAKALTTGDEEHVTKMVDPNVRIIIGDKTLIGMEKWHEFLKEMRVSIHHIIFRDSDIQGDKIRLDVEVDIRVHYNGREESSKIKSKIILLKFNGKWIIHAVEFD | 0.833
9 | SEEHKLLRETLEILWDTIETGDEHKLSNLLDPRARLRVGDKEYHGREEVMRIMTEIRVDRFRLHSITLVDGRAIIHTEIDVRVNGQRFRTSVTIFLIKVDGRWFVESLQID | 2.4
10 | SEEHKMVRDVTEDWLRLLLTGDEERLAELLDPNTRFLINGKEHHGREEAIEEWRHLRVDDFRIKSIDIQYQGEKAYVDIDGRQRGKVNGKKQDRDIKIHFHILKINGRWTIHEVRVEIE | 1.56
11 | SEEHKQIEEFLTRFYRFKKTGDEKMLSRMADPNYKMDIDGQDVHGREEYEEASRRFDHIHHIKLRQFERQGNKVYLDIEVDGEVNGRQTKHTSTLILLKIDGRWYIEHVHWE | 0.722
12 | SEEHKRIEKLLRRLQDALKTGDERDIMNLLDPNVRIEINGKDLIGREVWAKIMHHLRVEDSEINIHHSRSQGNFLESDIETHRHIHVDGKDIDLTWEEHVVIIKVDGKWKIERVHIR | 1.17
13 | SEEHKVAQHAIEIEEHVWHTGDERMLHELFDPDARLIINGQEFHGREELHRFREEMRITHMRTKEVRVQGDKMEIHVRVDVDINGKRTDIRVIIISRKVDGRWINTEIEFR | 0.734
14 | SEEHKWVHMAFEVLLKVLKTGDEENVNRLFDPHVRVEWDGREIHGMETFTRELSHLRFKLDDFKLHHISVAEGRAIIHGRFHGRIEYGDKEHEFDSHVILFVLKVDGRWLIKKIEFR | 1.83
15 | SEEHQTAEKMLRILLHLFLTGDEDKFEHLLDPHVRLHVGDKEIHGRELASKKLHEMVRHLRVRDVHVDTLDIQGNKMHFDTRIDVEQGDKTYILRFHWYNEKVDGRWRIHLVHYD | 1.68
16 | SEEHRDIEIARHIWVDMLRTGDERKSKELADPHVQIHFENRIYHGREEWERMIHELIHTLGADHIEIRIHSIEVQGDKILVHFHIEFQVNGKYLRYDSRSVFIKINGQWHLRSVYII | 1.25
17 | SEEHRDSKRAIDILVHSVRTGDEKSFESFLDPNVRIDVDGVELHGMEFATTIFREWRIHHVHIDRYRSQGDWIEVDTTMDVRYGDKTDTRKTELIILKVNGVWLLHSVIIR | 1.19
18 | SEEHRDVAKVIHDWFHDTITGDFKTLERLMDPNARLRINGQEFHGREEVRKFLERLLRHWREHSVEIEDINVQGDKASVHSHIDGEIDGRRIRMRSIFIILKFDGQWLMHSVIVE | 2.68
19 | SEEHRESEEASHEFRRLWETGDEKDFLKLADPHTRLEVNGKDIHGMREVTEFMKRRLHHLGFKHSDVKHEHVEVFDGKVRIEMIIEIHVNGVPLHTEVLVILTKINGKWRIHSITEEIK | 0.69
20 | SEEHRKVEEFARHWLHNFQTGDFRRFYELVDPNVRLRQGDWEFHGREIVAEWLFVHLEHARIDDYKVNHVENYNGRSIIDSEIHGEINGRRDITRVEIILIIINGRVHYVEIRIR | 2.31
21 | SEEHRLMEEIARIFIHLFLTGDEELFKHLADPNTRTHIHYGDKHIDLHGREQTTKFWKEHLDRVDHVEIRINDIRSIGDKAHIDGVLIMLVNGREHTIHIEIIVVVINGKDTEFEFRLI | 0.966
22 | SEEHRLSEEIARIEVHAWITGDEHILHELLDPNTRLEVNGREYHGREIVLKMIREFWENLGAKHREVKRVRIELIDGRVTTHIKDKVSQGDKELEIIIEIITEKVNGRWVIRNMRIELR | 2.7
23 | SEEHRQILHVMHLILELWMTGDEETLYHLADPNVRLLIDGREYHGREQIRKVWEDHHRRADHVDFRLKRFELFENHAHVHGEFIIVVNGVEFRHETELELHVVNGRVKEHNLRIK | 1.35
24 | SEEHTIAEEAIKHLIEILETGDFRTLHRMIDPHVRFEYGDKHLHGREILIKWFEEHWEKLGVDKVEVHVKDIEIQGNKAIVIGDIVINGQRKDTVWHLIVINGRIKMIRIEEH | 1.7
25 | SEEKDDANRHLEIFFHYFITGDESSMLREADPHVQVEQGDKHIHGMEEWVTEWSKREKELGAKHIKLEDKRIHLINGRVHLILDLIIEVGDKRRRMILIVTIDKINGRWVMSQMKLEVR | 1.2

Row | Sequence | protease stability score
26 | SEEKDQLKHVLEDLLRSIITGDEERIVELLDPEVRVDVGEKHSHGRENAAHLVQKLSEELRWRDIHVRDVRLIGDKIDIETRLEGDINGRNLIFQTHRHVIKVNGRWYFRRIIIH | 1.38
27 | SEEKEDAKIALTLLHEVIETGDERLFREMADPRVQIIVNGKELHGWKHFKEMLRILSERYDHMEIKFRDVRVVDGQVDSDVTINLHYDGREDQMEMDIIISKFDGRWFNHQVIFR | 1.34
28 | SEEKEDIDLAMEIFLHALETGDWEELLRQMDPNVRIVIGDKETHGREEFELTLLKLGIDHFHIKDMKLINGRLHLDTRVHFNGVTVQTEIIIVKFNGRWVIEEMDFQ | 2.4
29 | SEEKEEVKEVVEHVLEVMLTGDEEHSRELVDPHVRIEVGDKSRHGRDDMAHWLSHARIHRLHIKRSEVIGDYLHIDVHIDVEYNGKRMTTDVRRHELKVDGRWFIREERIE | 1.42
30 | SEEKEHHHQLARDILEMLRTGNEEIWHRLLDPHVKLNIDGKEYHGREDVRQMLRDHLEKIKGIKLHVTDVKDFDGKVYVHGRWHVGNFTVDILTIYTFIDGRVHTMSEETR | 1.41
31 | SEEKEHSDRLAEHLIHWFYTGDEDKLNELFDPNTKYVINGKELHGMESEHRERREEWRRVKNITFSIKHWDIQGNKVILHMTIHVGEKDIFVTYEYRIFDGKMKEIQVHVR | 0.867
32 | SEEKEIAERFIEMALQVWLTGDERSMVDMVDPHVLNIVGDKEHHGREILLKFLHDFKERFPNVRVKHRDVHIDLQGDKMEVRIDGRIHFDGKQFRLEIIIITTKIDGRWRVTHWEVRIE | 2.19
33 | SEEKEIAERIVRELLYAYHTGDEQLFNHLADPHVRIHIGEFHKVGREHWEELHRWLDNHLRIHRFFFRDVEVQGEKVHIHVRTNTIIGDKRIDTNLLFFILVVNGKIKHMEVREI | 1.81
34 | SEEKEKAEHVVRQFLRVILTGDWERIEELMDPHVRFRVDVDGQTLHNHGRERLIDWYAKVKGLRNNLREIHIFENRAELHFESTIGDKHFKERIEIHIVDGRFKSVTFQFE | 1.42
35 | SEEKELLEKISELLLKLLKTGDEETWNKLADPNMRLNVNGKDVHGWHKMIKLRHEVWEKLGIDHLEVKTIDIINGRVRIESRLVVNGRFIHIELEFHVINGRNEEEHLFVR | 0.418
36 | SEEKEMLETWFLLLVESFETGDEELFEELADPRTRLVINGRHQHGREDINEWLHRVWHKLGAKHVSLDLHDMRVINGRIHSHFTLLIRIGDYTERRQVDLHMIIINGKVKHVEIRFR | 1.06
37 | SEEKEMVLHLAELLIELEFTGNWEKLFELADPNVLSRINGRELHGMEKHRKHWEEIRIHRVHIEKVHIETIGDKAKLDIHGRLDGEVNGVRDISESVIHIVSRKYDGRWIVKSIEIRVH | 1.22
38 | SEEKERNHEIAEILIKLWLTGDEDHFWQLADPNPRVDFDGQEIIGRESIMRLLEHLIRRLGINHKHVDHTERQGDKVHIEVRLDQGEYHRTLHLEFIYVNGRVKEVRIRSRER | 1.4
39 | SEEKHDSEKLSHLLDHEWLTGDEESFRKLADPHVKSNINGVRLHGWRELHQFLDEHFNHLGAKIEDSDTEHIHTQGDKAFIHSTFVLLVNGKRIELETFFRSRKFDGRWVLTEVHVH | 0.521
40 | SEEKHMYKKLIEEWLKSVITGDEEHIQHLVDPDVRMTIIFENHELRAVGWEEVVRVLKEIRIKHFELRRWDDVNGRVHLDGQMTIQFNGQEHQTSTHIEIMFINGRVKEIRLIIT | 0.986
41 | SEEKHYFDSMLEIWRHLMQTGDERLFSELFDPNALVLFNGRHDHGRDAFRWILLQLRIDHINVHLRDFRKQGNKIIIHSEIEVDFTVNGQRREDSHMQIIIFHKIDGRWYATSLEVQ | 1.53
42 | SEEKKAIDEVLRLIFEAELTGNEDELEHLIDPHVKFHIDGVDVHGWEYLSYWIRQIRIHNLHPRSVEIHVYNGRVEVNIRGHYEGTINGRRTTFDMRVHIRIEKIDGVWIVREMSRHNH | 1.7
43 | SEEKKALDILLKTLIHTHQTGDEHTVRELVDPHVRIDFNGQELHGWEDARRFIVEMRLKHVDLRRVHHQGEKVELDGEVDGTYNGQEFHSKLHIVMRKVNGRWVFSQIEIK | 1.17
44 | SEEKKAWKLSLELHRRYVETGNEEDLIRFLDPHVRLEFNGQQYVGWEEVIRIMEELGFDVLKEIRLHSLDFQGEYVEVDGEVNGNINGRDRDHRIKFRMLKVDGKWLNHSVHVI | 1.36
45 | SEEKKESDKFFEEWVRSAQTGDEDRVREMLDPNARVEIGDKTYVGRELFLRIMVEIRIKDIILKDIRIQGDKLRNDGELLITVDGKEIRVETHIIAEKVDGRWVLSRFVWH | 1.35
46 | SEEKKFLEKAHREILHLYKTGDEDRMSELADPDVRMRLVINGQERHHHGREEFERVFREMLDRFGVKHVEDEDSDLVNGQVHIKGTERFNGKEVRFNIIIVWVDGRVHMLSVEYR | 0.264
47 | SEEKKFSMEMLELLLHLLLTGDWDKLNKEFDPDYRLIIGDKETIGRESVRERLRLEIERIDHIHDVKIEDWKVQGDKAHIRLRVDGNIDGKRKEFESELIVIIVDGRMKSVRIIIK | 1.97
48 | SEEKKHVEEVARHILHLFLTGDEELWSNMADPNMRYLWNGREIVGRDLVREQNKELRTHSIEITHIEVFDGRARVRVNVDYQIGDKRINTHSLVIIVIINGRIESVFIKHD | 1.27
49 | SEEKKLYDLAWELLLQSEKTGNEEIFERLADPHVRSHINGVDYIGRERFSELAHEINRELRIEDIHLHDVDLQGDKVNMSGSLTGHVNGKRHEYTMKIHFEKINGRWIIRSVSWE | 1.39
50 | SEEKKQSDEAWELYIKSVETGDFRMLHELLDPNVKIHIGDKDIHGREYIMEHMLKFGVTTQSRFEVKDIKLQGDFVIIHGHIRSIFHFNGRTLRVEHDVEIFATKFDGRWWTHSVEVN | 1.18
